According to US20220204609A1:

Legend:
[1] = target: Claudin18.1 on cells (human) (UniProt P56856); assay: flow cytometry on 293T-Claudin18.1 cells, antibody at 3 µg/mL
[2] = target: Claudin18.1 on cells (human) (UniProt P56856); assay: as above; remark: listed apart in the source
[3] = target: Claudin18.1 on cells (human) (UniProt P56856); assay: flow cytometry on 293T-Claudin18.1 cells, antibody at 1.5 µg/mL
[4] = target: Claudin18.1 on cells (human) (UniProt P56856); assay: as above; remark: listed apart in the source
[5] = target: Claudin18.1 on cells (human) (UniProt P56856); assay: flow cytometry on 293T-Claudin18.1 cells, antibody at 0.75 µg/mL
[6] = target: Claudin18.1 on cells (human) (UniProt P56856); assay: as above; remark: listed apart in the source
[7] = target: Claudin18.1 on cells (human) (UniProt P56856); assay: flow cytometry on 293T-Claudin18.1 cells, antibody at 0.375 µg/mL
[8] = target: Claudin18.1 on cells (human) (UniProt P56856); assay: as above; remark: listed apart in the source

Chain of Claudin18.1 on cells (human) (P56856 whole entry, form in doubt): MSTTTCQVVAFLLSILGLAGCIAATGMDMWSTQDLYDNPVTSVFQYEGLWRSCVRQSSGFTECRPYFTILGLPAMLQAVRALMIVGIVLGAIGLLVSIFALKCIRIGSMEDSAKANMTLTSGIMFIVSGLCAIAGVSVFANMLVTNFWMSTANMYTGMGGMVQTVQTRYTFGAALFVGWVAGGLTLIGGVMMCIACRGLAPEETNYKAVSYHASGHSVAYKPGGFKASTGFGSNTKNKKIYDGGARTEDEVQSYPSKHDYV

- mean fluorescence intensity [1]: 35600
- mean fluorescence intensity [2]: 12500
- mean fluorescence intensity [3]: 24900
- mean fluorescence intensity [4]: 17300
- mean fluorescence intensity [5]: 32000
- mean fluorescence intensity [6]: 20700
- mean fluorescence intensity [7]: 15600
- mean fluorescence intensity [8]: 12800
Substance: IMAB362 (antibody)
